The values below come from article PMC12368724 (2025).

In this test the target is GH1 β-glucosidase from Spodoptera frugiperda (Sfβgly), wild-type (Spodoptera frugiperda). As to the kind of experiment: P100 buffer, pH 6, 5°C, protein sample 3 (SEC).

B1: GH1 β-glucosidase from Spodoptera frugiperda (Sfβgly), wild-type (enzyme)
chain: QQRRFPDDFLFGTATASYQIEGAWDEDGKGENIWDYMVHNTPEVIRDLSNGDIAADSYHNYKRDVEMMRELGLDAYRFSLSWARILPTGMANEVNPAGIAFYNNYIDEMLKYNITPLITLYHWDLPQKLQELGGFANPLISDWFEDYARVVFENFGDRVKMFITFNEPREICFEGYGSATKAPILNATAMGAYLCAKNLVTAHAKAYYLYDREFRPVQGGQCGITISVNWFGPATPTPEDEMAAELRRQGEWGIYAHPIFSAEGGFPKELSDKIAEKSAQQGYPWSRLPEFTEEEKAFVRGTSDFFGVNHYTAFLVSATERKGPYPVPSLLDDVDTGSWADDSWLKSASAWLTLAPNSIHTALTHLNNLYNKPVFYITENGWSTDESRENSLIDDDRIQYYRASMESLLNCLDDGINLKGYMAWSLMDNFEWMEGYIERFGLYEVDFSDPARTRTPRKAAFVYKHIIKHRVVDYEYEPETMVMTIDEGH
modifications: Monomer given, self-associates to a C2 homodimer. Limits by convention from the 5CG0 entity; paper numbering = entity + 20 (precursor numbering) Monomer given, self-associates to a C2 homodimer. Limits by convention from the 5CG0 entity; paper numbering = entity + 20 (precursor numbering)
As a reminder, the Kd is a measure of binding affinity in units of concentration. A lower Kd goes with tighter binding. For B1, the affinity, expressed as Kd, was 5.5 µM.
